Positions count from the first letter of the chain named.
B1: PGT 128 VH H52aA (antibody, V domains shown)
VH: QPQLQESGPTLVEASETLSLTCAVSGDSTAACNSFWGWVRQPPGKGLEWVGSLSACASYWNRGWTYHNPSLKSRLTLALDTPKNLVFLKLNSVTAADTATYYCARFGGEVLRYTDWPKPAWVDLWGRGTLVTVSS
VL: QSALTQPPSASGSPGQSITISCTGTSNNFVSWYQQHAGKAPKLVIYDVNKRPSGVPDRFSGSKSGNTASLTVSGLQTDDEAVYYCGSLVGNWDVIFGGGTKLTVL
B2: PGT 127 (format not stated for the experiment) (antibody, V domains shown)
VH: QPQLQESGPGLVEASETLSLTCTVSGDSTGRCNYFWGWVRQPPGKGLEWIGSLSHCRSYYNTDWTYHNPSLKSRLTISLDTPKNQVFLRLTSVTAADTATYYCARFGGEVLVYRDWPKPAWVDLWGRGTLVTVSS
VL: B1 VL with H36Y, A37P, D47E, N66S, T77A, A81G, G86S
B3: PGT 128 IgG (antibody, V domains shown)
VH: B1 VH with A55H
VL: B1 VL
B4: Fab PGT 127 (Fab, V domains shown)
VH: B2 VH
VL: B1 VL with H36Y, A37P, D47E, N66S, T77A, A81G, G86S
B5: Fab PGT 128 (Fab, V domains shown)
VH: B1 VH with A55H
VL: B1 VL
B6: PGT 128 (format not stated for the experiment) (antibody, V domains shown)
VH: B1 VH with A55H
VL: B1 VL
B7: PGT 127 IgG (antibody, V domains shown)
VH: B2 VH
VL: B1 VL with H36Y, A37P, D47E, N66S, T77A, A81G, G86S

Legend:
gp120 (of the ELISA) = gp120 (of the ELISA) (HIV-1, strain  for ELISA; …, UniProt Q75760); assay: ELISA
[1] = biological target: HIV-1 YU2 Env on the cell surface (HIV-1 YU2, UniProt P35961); assay: flow cytometry on cells

Row | Binder | binding result (gp120 (of the ELISA)) | binding result [1]
1 | B1 | binds | 
2 | B2 | binds | 
3 | B3 |  | binds
4 | B4 |  | binds
5 | B5 |  | binds
6 | B6 | binds | 
7 | B7 |  | binds

— PMC3280215 (Science (New York, N.y.), 2011)
